In article PMC10047360:

Test: Western blot, mature upper band, B3GnT2-/- HEK293T
Conditions: glycan lost; control: wild-type LRP6

Protein | localisation_or_trafficking
LRP6: N281Q (protein) parent chain: MGAVLRSLLACSFCVLLRAAPLLLYANRRDLRLVDATNGKENATIVVGGLEDAAAVDFVFSHGLIYWSDVSEEAIKRTEFNKTESVQNVVVSGLLSPDGLACDWLGEKLYWTDSETNRIEVSNLDGSLRKVLFWQELDQPRAIALDPSSGFMYWTDWGEVPKIERAGMDGSSRFIIINSEIYWPNGLTLDYEEQKLYWADAKLNFIHKSNLDGTNRQAVVKGSLPHPFALTLFEDILYWTDWSTHSILACNKYTGEGLREIHSDIFSPMDIHAFSQQRQPNATNPCGIDNGGCSHLCLMSPVKPFYQCACPTGVKLLENGKTCKDGATELLLLARRTDLRRISLDTPDFTDIVLQLEDIRHAIAIDYDPVEGYIYWTDDEVRAIRRSFIDGSGSQFVVTAQIAHPDGIAVDWVARNLYWTDTGTDRIEVTRLNGTMRKILISEDLEEPRAIVLDPMVGYMYWTDWGEIPKIERAALDGSDRVVLVNTSLGWPNGLALDYDEGKIYWGDAKTDKIEVMNTDGTGRRVLVEDKIPHIFGFTLLGDYVYWTDWQRRSIERVHKRSAEREVIIDQLPDLMGLKATNVHRVIGSNPCAEENGGCSHLCLYRPQGLRCACPIGFELISDMKTCIVPEAFLLFSRRADIRRISLETNNNNVAIPLTGVKEASALDFDVTDNRIYWTDISLKTISRAFMNGSALEHVVEFGLDYPEGMAVDWLGKNLYWADTGTNRIEVSKLDGQHRQVLVWKDLDSPRALALDPAEGFMYWTEWGGKPKIDRAAMDGSERTTLVPNVGRANGLTIDYAKRRLYWTDLDTNLIESSNMLGLNREVIADDLPHPFGLTQYQDYIYWTDWSRRSIERANKTSGQNRTIIQGHLDYVMDILVFHSSRQSGWNECASSNGHCSHLCLAVPVGGFVCGCPAHYSLNADNRTCSAPTTFLLFSQKSAINRMVIDEQQSPDIILPIHSLRNVRAIDYDPLDKQLYWIDSRQNMIRKAQEDGSQGFTVVVSSVPSQNLEIQPYDLSIDIYSRYIYWTCEATNVINVTRLDGRSVGVVLKGEQDRPRAVVVNPEKGYMYFTNLQERSPKIERAALDGTEREVLFFSGLSKPIALALDSRLGKLFWADSDLRRIESSDLSGANRIVLEDSNILQPVGLTVFENWLYWIDKQQQMIEKIDMTGREGRTKVQARIAQLSDIHAVKELNLQEYRQHPCAQDNGGCSHICLVKGDGTTRCSCPMHLVLLQDELSCGEPPTCSPQQFTCFTGEIDCIPVAWRCDGFTECEDHSDELNCPVCSESQFQCASGQCIDGALRCNGDANCQDKSDEKNCEVLCLIDQFRCANGQCIGKHKKCDHNVDCSDKSDELDCYPTEEPAPQATNTVGSVIGVIVTIFVSGTVYFICQRMLCPRMKGDGETMTNDYVVHGPASVPLGYVPHPSSLSGSLPGMSRGKSMISSLSIMGGSSGPPYDRAHVTGASSSSSSSTKGTYFPAILNPPPSPATERSHYTMEFGYSSNSPSTHRSYSYRPYSYRHFAPPTTPCSTDVCDSDYAPSRRMTSVATAKGYTSDLNYDSEPVPPPPTPRSQYLSAEENYESCPPSPYTERSYSHHLYPPPPSPCTDSS | no change
LRP6: N433Q (protein) parent chain: MGAVLRSLLACSFCVLLRAAPLLLYANRRDLRLVDATNGKENATIVVGGLEDAAAVDFVFSHGLIYWSDVSEEAIKRTEFNKTESVQNVVVSGLLSPDGLACDWLGEKLYWTDSETNRIEVSNLDGSLRKVLFWQELDQPRAIALDPSSGFMYWTDWGEVPKIERAGMDGSSRFIIINSEIYWPNGLTLDYEEQKLYWADAKLNFIHKSNLDGTNRQAVVKGSLPHPFALTLFEDILYWTDWSTHSILACNKYTGEGLREIHSDIFSPMDIHAFSQQRQPNATNPCGIDNGGCSHLCLMSPVKPFYQCACPTGVKLLENGKTCKDGATELLLLARRTDLRRISLDTPDFTDIVLQLEDIRHAIAIDYDPVEGYIYWTDDEVRAIRRSFIDGSGSQFVVTAQIAHPDGIAVDWVARNLYWTDTGTDRIEVTRLNGTMRKILISEDLEEPRAIVLDPMVGYMYWTDWGEIPKIERAALDGSDRVVLVNTSLGWPNGLALDYDEGKIYWGDAKTDKIEVMNTDGTGRRVLVEDKIPHIFGFTLLGDYVYWTDWQRRSIERVHKRSAEREVIIDQLPDLMGLKATNVHRVIGSNPCAEENGGCSHLCLYRPQGLRCACPIGFELISDMKTCIVPEAFLLFSRRADIRRISLETNNNNVAIPLTGVKEASALDFDVTDNRIYWTDISLKTISRAFMNGSALEHVVEFGLDYPEGMAVDWLGKNLYWADTGTNRIEVSKLDGQHRQVLVWKDLDSPRALALDPAEGFMYWTEWGGKPKIDRAAMDGSERTTLVPNVGRANGLTIDYAKRRLYWTDLDTNLIESSNMLGLNREVIADDLPHPFGLTQYQDYIYWTDWSRRSIERANKTSGQNRTIIQGHLDYVMDILVFHSSRQSGWNECASSNGHCSHLCLAVPVGGFVCGCPAHYSLNADNRTCSAPTTFLLFSQKSAINRMVIDEQQSPDIILPIHSLRNVRAIDYDPLDKQLYWIDSRQNMIRKAQEDGSQGFTVVVSSVPSQNLEIQPYDLSIDIYSRYIYWTCEATNVINVTRLDGRSVGVVLKGEQDRPRAVVVNPEKGYMYFTNLQERSPKIERAALDGTEREVLFFSGLSKPIALALDSRLGKLFWADSDLRRIESSDLSGANRIVLEDSNILQPVGLTVFENWLYWIDKQQQMIEKIDMTGREGRTKVQARIAQLSDIHAVKELNLQEYRQHPCAQDNGGCSHICLVKGDGTTRCSCPMHLVLLQDELSCGEPPTCSPQQFTCFTGEIDCIPVAWRCDGFTECEDHSDELNCPVCSESQFQCASGQCIDGALRCNGDANCQDKSDEKNCEVLCLIDQFRCANGQCIGKHKKCDHNVDCSDKSDELDCYPTEEPAPQATNTVGSVIGVIVTIFVSGTVYFICQRMLCPRMKGDGETMTNDYVVHGPASVPLGYVPHPSSLSGSLPGMSRGKSMISSLSIMGGSSGPPYDRAHVTGASSSSSSSTKGTYFPAILNPPPSPATERSHYTMEFGYSSNSPSTHRSYSYRPYSYRHFAPPTTPCSTDVCDSDYAPSRRMTSVATAKGYTSDLNYDSEPVPPPPTPRSQYLSAEENYESCPPSPYTERSYSHHLYPPPPSPCTDSS | no change
